For the assay, the target named is anti-idiotype antibody 3H1. As to the kind of experiment: Ab1-Ab2 binding inhibition assays; competitor 8019.
anti-idiotype antibody 3H1, sequence (VL, as listed by the source, chain 1 of 2): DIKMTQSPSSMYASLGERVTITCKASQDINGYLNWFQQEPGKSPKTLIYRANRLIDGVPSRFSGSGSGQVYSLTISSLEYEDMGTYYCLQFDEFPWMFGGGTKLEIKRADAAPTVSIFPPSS
anti-idiotype antibody 3H1, sequence (VH, as listed by the source, chain 2 of 2): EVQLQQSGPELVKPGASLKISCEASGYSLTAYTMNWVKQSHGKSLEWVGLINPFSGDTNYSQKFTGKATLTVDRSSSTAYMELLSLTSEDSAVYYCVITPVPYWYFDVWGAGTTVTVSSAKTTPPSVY

control normal serum pool (antibody) came in with an inhibition of 10 to 15%.

Broadly, the inhibition is the share of the control response that was lost under treatment. A high value points to a strong effect.
